Results taken from publication PMC12742838, “Discovery and structural investigation of Varicella-Zoster virus gE-neutralizing antibodies isolated from a convalescent patient” (Protein & Cell, 2025).

What was measured:
[1] = biological target: T1, Varicella-zoster virus glycoprotein E (gE), recombinant protein, tag not told for these experiments (Varicella-zoster virus, UniProt P09259); experiment: cryo-EM structure; ternary complex Fab WLL-1/Fab WLL-28/gE, resolved at 3.36 Å; only the gI-binding domain of gE is seen; details: both partners purified
T1 construct: glycoprotein E (gE) of Varicella-zoster virus; Methods are in the Supplementary Materials; also called gE protein

[2] = biological target: T2, recombinant soluble insulin-degrading enzyme (rIDE, residues 42-1,019) (UniProt P14735 42-1019); experiment: SPR; dissociation constant of gE to rIDE; details: both partners purified
T2 construct: insulin-degrading enzyme (IDE), cellular receptor of VZV gE, residues 42-1,019; Tags and host are probably in the Supplementary Materials; also called rIDE receptor protein; source: recombinant, purified

Binder | binding result [1] | Kd [2] [nM]
Fab WLL-1 (Fab, V domains shown) VH: QITLKESGPTLVKPTQTLTLTCTFSGFSLTNTEMTVGWIRRPPGKALEWLALIYWDDDKRYSPSLRSRLTITKDTSKNQVVLKMTNMDPVDTATYYCARLSLRLLTFDYWGQGTLVTVSS VL: SYVVTQPPSVSVAPRQTARITCGGSNIGSKSVHWHQQKPGQAPVLVVYDDSDRPSGIPERFSGSNSGNTATLTITRVEAGDEADYYCQVWDSSGDHPLFGGGTKLTVL | binds | 
Fab WLL-28 (Fab, V domains shown) VH: EVQLVQSGAEVKKPGEPLKISCKASGYNFANFWVGWVRQMPGRGLEWMGVIFPADSDTRYSPSFQGQVIISADKSTNTAYLQWSSLKASDSAMYYCARHVRGSLWGGGGYWGQGTLVTVSS VL: EIVMTQSPSTLSVSPGEGATLSCRASQSVNNDLAWYQQKPGQAPRLLINGASTRATGIPARFTGSGSGTEFTLTISSLQPEDFAVYFCQQYNDWPRTFGQGTKVEIK | binds | 
Varicella-zoster virus glycoprotein E (gE), recombinant protein, tag not told for these experiments (natural protein, glycoprotein E (gE) of Varicella-zoster virus; Methods are in the Supplementary Materials; also called gE protein) SVLRYDDFHTDEDKLDTNSVYEPYYHSDHAESSWVNRGESSRKAYDHNSPYIWPRNDYDGFLENAHEHHGVYNQGRGIDSGERLMQPTQMSAQEDLGDDTGIHVIPTLNGDDRHKIVNVDQRQYGDVFKGDLNPKPQGQRLIEVSVEENHPFTLRAPIQRIYGVRYTETWSFLPSLTCTGDAAPAIQHICLKHTTCFQDVVVDVDCAENTKEDQLAEISYRFQGKKEADQPWIVVNTSTLFDELELDPPEIEPGVLKVLRTEKQYLGVYIWNMRGSDGTSTYATFLVTWKGDEKTRNPTPAVTPQPRGAEFHMWNYHSHVFSVGDTFSLAMHLQYKIHEAPFDLLLEWLYVPIDPTCQPMRLYSTCLYHPNAPQCLSHMNSGCTFTSPHLAQRVASTVYQNCEHADNYTAYCLGISHMEPSFGLILHDGGTTLKFVDTPESLSGLYVFVVYFNGHVEAVAYTVVSTVDHFVNAIEERGFPPTAGQPPATTKPKEITPVNPGTSPLLR |  | ~10
